Test results as given in paper PMC6356061.

Tests used:
[1] = target: NMDA receptor GluN1 subunit (mouse (endogenous in primary cortical neurons)) (UniProt P35438); assay: co-IP; extracts of neurons exposed 10 min to 14.4 nM biotinylated Fib-Tau; immunoprecipitation with anti-α3-NKA, anti-GluA2 or anti-GluN1 and protein G magnetic beads, 4°C; Fib-Tau detected on slot blot with streptavidin-HRP; controls with pre-immune goat or rabbit IgG
[2] = target: NMDA receptor GluN1 subunit (mouse (endogenous in primary cortical neurons)) (UniProt P35438)

fold enrichment in Tau band intensity over pre-immune IgG control [1]: 1.8 fold | change in the amount (fluorescence intensity) of synaptic GluN1-NMDA after exposure of neurons to Fib-Tau (0.36 nM, 60 min); no change [2]: -3.2%
Substance: Biotin-labelled fibrillar Tau-1N3R (Fib-Tau-1N3R) (from UniProt P10636-4 1-381) (natural protein)
